Experimental data reported in article PMC6471494, “Functional Mechanisms Underlying the Antimicrobial Activity of the Oryza sativa Trx-like Protein” (International Journal of Molecular Sciences, 2019).

Molecular target: the molecule itself
Experiment: negative-stain transmission electron microscopy; SEC fractions a, b and c of OsTDX on glow-discharged carbon-coated copper grids, 1% uranyl acetate, FEI Tecnai 20 at 200 kV

B1: Oryza sativa Tetratricopeptide Domain-containing thioredoxin (OsTDX) protein (natural protein, UniProt Q6ES52 1-317, looked up)
chain: MATAGASSFEDEIMESDIELEGEAVEPDNDPPQKMGDPSVEVSDEKRDQAQLCKNKGVDAFSEGKLDEAIEHLTEAIVLNPTSAIAYATRAVIFVKSKKPNAAIRDADAALKINPDSAKGYKSRGMAKAMLGKWEEAAQDLRMAAKLDYDEEIGAELKKVEPNVLKIEEHRKKYERLRKERDIKKAEMEKQRKHAEEVSAASAALKDGDVIAIHSSSELDTKLKAASSLSRLVVLYFTAAWCGPCRFIGPVCKSLAEKHRNVVFLKVDIDELNSVAYRWNVSSVPSFFFVRNGKEIDKVVGADKNGLERKVAQHGSS
notes: OsTDX, Oryza sativa TPR repeat-containing thioredoxin; full-length cDNA amplified from a rice leaf cDNA library and cloned into pGEX-2T; predicted MW ~35 kDa; also called rice Trx-like protein; recombinant OsTDX; source: E. coli BL21(DE3), purified (glutathione-agarose, GST cleaved by thrombin, FPLC SEC 650 column)
stoichiometry N: 2
